Assay [1] concerns the target T1, AtcC-6His (SO_1846) (Shewanella oneidensis MR-1, UniProt Q8EFW9 1-298).
T1 construct: AtcC (SO_1846) of Shewanella oneidensis MR-1, 34 kDa; pBad33-AtcC was made by moving the insert of pET-AtcC, so both give AtcC with a C-terminal 6-His tag; also called AtcC with a 6His-tag; not shown: His6, C-terminal, kept
T1 sequence (looked up): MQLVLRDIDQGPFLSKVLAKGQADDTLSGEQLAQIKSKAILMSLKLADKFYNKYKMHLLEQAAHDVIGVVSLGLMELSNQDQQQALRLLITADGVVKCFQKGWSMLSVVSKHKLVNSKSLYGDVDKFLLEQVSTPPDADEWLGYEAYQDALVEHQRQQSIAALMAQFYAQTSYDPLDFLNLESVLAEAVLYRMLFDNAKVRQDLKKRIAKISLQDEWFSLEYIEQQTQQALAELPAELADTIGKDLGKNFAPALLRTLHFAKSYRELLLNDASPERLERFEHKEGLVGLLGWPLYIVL
The assay can be described thus: ITC; 25 °C, buffer B (50 mM Tris-HCl, 100 mM KCl, 10% glycerol, 1 mM DTT); 285 µM ligand titrated into 36 µM AtcC in the cell; one set of sites model. Particulars: both partners purified. A general note: Isothermal titration calorimetry measures the heat released or taken up as one component is titrated into another.

The target in assay [2] is T1, AtcC-6His (SO_1846). Description: pull-down. As to conditions: both partners purified.
Assay [3] addresses DnaK-6His from S. oneidensis (Shewanella oneidensis MR-1, UniProt Q8EHT7 1-639). The assay can be described thus: cell-based or functional assay.

Sequence of DnaK-6His from S. oneidensis (Q8EHT7 whole entry): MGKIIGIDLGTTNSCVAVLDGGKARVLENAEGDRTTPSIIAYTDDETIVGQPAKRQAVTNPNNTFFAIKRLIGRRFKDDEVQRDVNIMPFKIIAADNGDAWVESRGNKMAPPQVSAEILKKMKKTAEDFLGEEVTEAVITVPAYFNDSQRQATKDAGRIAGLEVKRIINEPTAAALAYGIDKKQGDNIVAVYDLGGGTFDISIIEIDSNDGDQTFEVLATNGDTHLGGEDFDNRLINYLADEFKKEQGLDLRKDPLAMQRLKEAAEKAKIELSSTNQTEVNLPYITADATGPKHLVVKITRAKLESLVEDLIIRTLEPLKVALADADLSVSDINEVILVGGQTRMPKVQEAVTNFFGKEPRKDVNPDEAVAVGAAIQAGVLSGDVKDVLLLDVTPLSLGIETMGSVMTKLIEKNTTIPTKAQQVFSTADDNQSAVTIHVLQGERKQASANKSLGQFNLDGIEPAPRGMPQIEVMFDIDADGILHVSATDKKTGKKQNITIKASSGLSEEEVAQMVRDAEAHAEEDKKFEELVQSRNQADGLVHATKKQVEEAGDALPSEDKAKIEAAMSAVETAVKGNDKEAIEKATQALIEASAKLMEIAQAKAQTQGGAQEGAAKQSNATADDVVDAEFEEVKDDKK

B1: pep21, synthetic peptide corresponding to the last 21 amino acids of AtcJ (peptide)
peptide: NNVIVTDPNSAMRELWDQFYP
notes: last 21 amino acids of AtcJ (SO_1850) of Shewanella oneidensis (94 amino acids; N74 is the first residue of the extension); The methods sentence says 'last 21 amino acids of AtcC'; results and legends say AtcJ; also called the peptide
Consider B1, for which, in assay [1], the Kd (as a rule, the concentration at which binding is half-saturated) worked out at 80 ± 12 nM.

B2: Strep-AtcB (natural protein, Shewanella oneidensis MR-1, UniProt Q8EFW7 1-252, looked up)
chain: MNTSLIEITVAEIKELADVEPKQASKRFELIATTMNDEQLVEVIEKMDIVTLTQINSHHDISCPSIMSELMTPEQIRDIVCQQPLYWEEKIKNNAEELIQHTFDFLTYLIRIQDSEEKQTAILECIAEDPAGLFYLSIPFIEMMLGEGHDDEDHINDYYDDEEDTDTIGYDSRVASEEAHSFSLDDPRSLMALIHELAPDVEKAIKNLLRNESSGWETIINKFVNELVIQAKEKNQVTDEYAEVDDMFSFLD
notes: AtcB (SO_1848) of Shewanella oneidensis MR-1, 29 kDa; also called AtcB with a Strep-tag; purified AtcB
Consider B2, for which, in assay [2], the binding result is on record as “binds”.

B3: AtcJ-6His (Adaptation to cold protein J, SO_1850) (natural protein, Shewanella oneidensis MR-1, UniProt Q8EFW5 1-94, looked up)
chain: MINHFSVLGIKPSAKEDDIKKAYRRLSNKYHPDKLLGASDEEKEQASQQLERVKKAYEVLSDPKLRNAFIRDFNNVIVTDPNSAMRELWDQFYP
notes: AtcJ (SO_1850) of Shewanella oneidensis MR-1, a 94-amino acid J-domain protein (J-domain 1-73 and a C-terminal extension of 21 amino acids); also called wild-type AtcJ; AtcJ-WT
Consider B3, for which the “stimulation of the ATPase activity of DnaK in the presence of GrpE (2 µM) from S. oneidensis” value in assay [3] came to 2.7 fold. Moreover, in assay [1], the Kd is 7 ± 2 nM and the stoichiometry N – broadly, the number of molecules, sites or subunits per partner or assembly – was determined as 1.

Source of the values: PMC6715715 (Communications Biology, 2019).
